The text below walks through data of US20240043504A1 (published 2024).

Assay [1] has as its target SARS-CoV-2 RBD extracellular domain expressed with a C-terminal mouse IgG2a (SARS-COV-2 RBD-mFc) (SARS-CoV-2).
Assay [2] has as its target SARS-COV-2 RBD-mFc (SARS-CoV-2). The assay can be described thus: Luminex beads.

Substitutions are numbered along the chain they refer to.

B1: mAb10982 (antibody, V domains shown)
VH: EVQLVESGGGLVQPGGSLRLSCAASGLTVSSNYMSWVRQAPGKGLEWVSVIYSGGTTYYADSVKGRFTISRHNSKNTLSLQMNSLRAEDTAVYYCARGEGANYYGMDVWGQGTTVTVSS
VL: QSVLTQPPSVSGAPGQRVTISCTGSSSNIGTGYDVHWYQQLPGTAPKLLIYGNSNRPSGVPDRFSGSKSGTSASLAITGLQAEDEADYYCQSYDSSLSGYVVFGGGTKLTVLG
For B1, in assay [1], the Kd worked out at 0.0544 nM, the koff is 1.69e-05 s⁻¹, the on-rate (kon) came out at 310000 M⁻¹ s⁻¹ and the t1/2 came to 11.4 h.

B2: mAb10986 (antibody, V domains shown)
VH: EVQLVESGGGLVQPGGSLRLSCAASEFTVSSNYMSWVRQAPGKGLEWVSVIYSGGSTFYADSVKGRFTISRDNSKNTLYLQMNSLRAEDTAVYYCARALPYGDLHFDYWGQGTLVTVSS
VL: B1 VL with S54T, G99D, Y100S, V101Y, G105T, L109V
In assay [1], B2 yielded a Kd of no more than 0.0158 nM and a t1/2 of no less than 19.2 h.

B3: mAb10985 (antibody, V domains shown)
VH: EVQLVESGGGLVQPGRSLRLSCAASGFTFDDYAMHWVRQAPGKGLEWVSGISWNRGSIGYADSVKGRFTISRDNAKNSLYLQMSSLRAEDTALYYCAKDGERWDSVVVPSARNGMDVWGQGTTVTVSS
VL: B1 VL with T31A, Y100S, V101Y, G105T, L109V
In assay [1], B3 displayed a Kd of 0.0117 nM and a t1/2 of 15.2 h.

B4: mAb10971 (antibody, V domains shown)
VH: EVQLVESGGGLIQPGGSLRLSCAASGVTVSSNYMSWVRQAPGKGLEWVSVIYSGGSTFYSDSVKGRFSISRDNSKNTLYLQMNSLRAEDTAVYYCARDLYYYGMDVWGQGTTVTVSS
VL: DIQLTQSPSFLSASVGDRVTITCRASQGISTYLAWYQQKPGKAPKLLIYAASTLQSGVPSRFSGSGSGTEFTLTISSLQPEDFATYYCQQLDSYPGLTFGGGTKVEIKR
As to B4, in assay [1], the equilibrium dissociation constant (Kd) is no more than 0.0253 nM, the dissociation rate constant (koff) is no more than 1e-05 s⁻¹, the kon worked out at 395000 M⁻¹ s⁻¹ and the t1/2 was no less than 19.2 h.

B5: mAb10966 (antibody, V domains shown)
VH: EVQLVESGGGLVQPGGSLRLSCAASGLTVSSNYMSWVRQAPGKGLEWVSVIYSGGSTFYADSVKGRFTISRDNSKNTLYLQMNSLRPEDTAVYYCAREGRIAATGYGMDVWGQGTTVTVSS
VL: not shown
In assay [1], B5 had an equilibrium dissociation constant (Kd) of no more than 0.0249 nM and a t1/2 of no less than 19.2 h.

B6: mAb10921 (antibody, V domains shown)
VH: EVQLVESGGGLVQPGGSLRLSCAASGITVSSNYMSWVRQAPGKGLEWVSVIYSGGSTFYADSVKGRFTISRHNSKNTLYLQMNSLRAEDTAVYYCARERNFDAFDIWGQGTMVTVSS
VL: DIQMTQSPSSVSASVGDRVTITCRASQGISSWLAWYQQKPGKAPKLLIYAASSLQSGVPSRFSGSGSGTDFTLTISSLQPEDFATYYCQQANSFPLFTFGPGTKVDIKR
On to B6, for which, in assay [2], the binding result is given as “binds”.

B7: mAb10957 (antibody, V domains shown)
VH: B4 VH with I12V, S60A, S68T, Y79F, A87I, Y100G, Y101P
VL: B4 VL with T31S, E70Q, T72I, D92N, L97F, G101P, E106D
B7: in assay [1], the Kd is no more than 0.0279 nM and the t1/2 is no less than 19.2 h.

B8: mAb10989 (antibody, V domains shown)
VH: QVQLVQSGAEVKKPGASVKVSCKASGYIFTGYYMHWVRQAPGQGLEWMGWINPNSGGANYAQKFQGRVTLTRDTSITTVYMELSRLRFDDTAVYYCARGSRYDWNQNNWFDPWGQGTLVTVSS
VL: QSALTQPASVSGSPGQSITISCTGTSSDVGTYNYVSWYQQHPGKAPKLMIFDVSNRPSGVSDRFSGSKSGNTASLTISGLQAEDEADYYCSSFTTSSTVVFGGGTKLTVLG
Take B8: the t1/2 in assay [1] was 2.07 h.

B9: mAb10932 (antibody, V domains shown)
VH: EVQLVESGGGLVQSGGSLRLSCAASGLTVSSNYMSWVRQAPGKGLEWVSVIYSGGSTFYSDSVKGRFTISRHNSKNTLYLQMNSLRAEDTAVYYCARARGDAFDIWGQGTMVTVSS
VL: not shown
As to B9, the binding result in assay [2] was “binds”.

B10: mAb10934 (antibody, V domains shown)
VH: not shown
VL: DIQMTQSPSSLSASVGDRVTITCQASQDIWNYINWYQQKPGKAPKLLIYDASNLKTGVPSRFSGSGSGTDFTFTISSLQPEDIATYYCQQHDDLPPTFGQGTKVEIKR
With B10, the binding result in assay [2] is reported as “binds”.

B11: mAb10967 (antibody, V domains shown)
VH: EVQLVESGGGLVQPGGSLRLSCAASGFTVSSNYMSWVRQAPGKGLEWVSVIYPGGSTFYADSVKGRFTISRDNSKNTLYLQMNSLRAEDTAVYYCARDQRDFAWGQGTLVTVSS
VL: B10 VL with W30S, I33L, K55E, S77G, H91Y, D93N, K103R, V104L
In assay [1], B11 gave a Kd of no more than 0.0251 nM and a t1/2 of no less than 19.2 h.

B12: mAb10955 (antibody, V domains shown)
VH: EVQLVESGGGLVQPGGSLRVSCAASGFTVSRNYMSWVRQAPGKGLEWVSVIYSGGSTFYADSVKGRFTISRDNSKNTLYLQMNSLRAEDTAIYYCARYIPRFDPWGQGTLVTVSS
VL: B10 VL with W30S, I33L, Y36F, K42R, K55E, H91Y, D93N, P96I, K103R, V104L
Regarding B12, in assay [1], the dissociation constant Kd came out at 0.0592 nM and the t1/2 was 8.23 h.

B13: mAb10935 (antibody, V domains shown)
VH: EVQLVESGGGLVQPGGSLRLSCAASGFTVSSNYMSWVRQAPGKGLEWVSLIYSGGSTYYADSVKGRFTISRHNSKNTLYLQMNSLRSEDTAVYYCARVPLGDYYYGMDVWGQGTTVTVSS
VL: B10 VL with W30N, N31K, I33L, K55E, H91S, D93N, P96L, Q100G
Take B13: the binding result in assay [2] is reported as “binds”.

B14: mAb10938 (antibody, V domains shown)
VH: EVQLVESGGGLVQPGGSLRLSCAVSGFTVSSNYMSWVRQAPGKGLEWVSLIYSGGSTFYADSVKGRFTISRHNSKNTLYLQMNSLRAEDTAVYYCAREGGYSYDYNYWGQGTLVTVSS
VL: B10 VL with W30R, I33L, K55E, S65I, H91Y, D93N, P96I, K103R, V104L
In assay [1], B14 displayed a Kd of no more than 0.0322 nM and a t1/2 of no less than 19.2 h.

B15: mAb10954 (antibody, V domains shown)
VH: EVQLVESGGGLVQPGGSLRLSCAASGITVSSNYMSWVRQAPGKGLEWVSLIYSGGSTYYADSVKGRFTISRDNSKNTLYLQMNSLRVEDTAVYYCARDHGMAAAGYNYWGQGTLVTVSS
VL: B10 VL with W30N, N31K, I33L, K55E, S76N, I83F, Y87F, H91Y, D93N, T97A
In assay [1], B15 returned a Kd of no more than 0.0173 nM and a t1/2 of no less than 19.2 h.

B16: mAb10969 (antibody, V domains shown)
VH: QVQLVESGGGVVQPGRSLRLSCAASGFTFSSYAMHWVRQAPGKGLEWVAVISYDGSNKYYADSVKGRFTISRDNSKNTLYLQMNSLRAEDTAVYYCARDGRTITMVRGVIDDAFDIWGQGTMVTVSS
VL: not shown
In assay [1], B16 came in with a dissociation constant Kd of 0.0496 nM and a t1/2 of 12.7 h.

B17: mAb10936 (antibody, V domains shown)
VH: QVQLVESGGGVVQPGRSLRLSCAASGFTFRNYGMHWVRQAPGKGLEWVSVIWYDGSNRYYADSVKGRFTISRDTSKNTLYLQMNSLRAEDTAVYYCARDPPITGTTGGDAFDIWGQGTMVTVSS
VL: not shown
Regarding B17, the binding result in assay [2] was “binds”.

B18: mAb10937 (antibody, V domains shown)
VH: QITLKESGPTLVKPTQTLTLTCTFSGFSLSTNVVGVGWIRQPPGKALEWLALIYWNDDKRYSPSLKSRLTITKDTSKNQVVLTMTNMDPVDTATYYCAHGPTGDYFDYWGQGTLVTVSS
VL: not shown
Consider B18, for which the binding result in assay [2] is “binds”.

B19: mAb10939 (antibody, V domains shown)
VH: EVQLVESGGGLVQPGGSLRLSCAASGLTVSSNYMNWVRQVPGKGLEWVSVIYSGGSKFYVDSVKGRFTISRHNSKNTLYLQMNSLRPEDTAVYYCTRDAQYYGMDVWGQGTTVTVSS
VL: DIQMTQSPSSLSASVGDRVTITCRASQSISTYLHWYQQKPGEAPKLLIYAASSLQSGVPSRFSGSGSGTDFTLTISSLQPEDFATYYCQQSYSTPPEIFGQGTKLEIKR
In assay [1], B19 returned a Kd of 0.0387 nM, a koff of 1.15e-05 s⁻¹, a kon of 299000 M⁻¹ s⁻¹ and a t1/2 of 16.7 h.

B20: mAb10956 (antibody, V domains shown)
VH: B4 VH with I12V, V27L, S60A, S68T, Y100I, Y101K
VL: not shown
For B20, in assay [1], the equilibrium dissociation constant (Kd) amounted to 0.395 nM and the t1/2 was found to be 1.3 h.

B21: mAb10920 (antibody, V domains shown)
VH: QVQLVESGGGVVQPGRSLRLSCAASGFTFSYYGMHWVRQAPGKGLEWVAVIWYDGSNKFYADSVKGRFTISRDNSKNTLYLQMNSLRAEDTAVYYCAAARPGYYYGMDVWGQGTTVTVSS
VL: DIQMTQSPSSLSASVGDRVTITCRASQGISNYLAWFQQKPGKAPNSLIYAASSLQRGVPSKFSGSGSGTDFTLTISSLQPEDFATYYCQQYNSYPRTFGQGTKVEIKR
Turning to B21, the binding result in assay [2] is listed as “binds”.

B22: mAb10964 (antibody, V domains shown)
VH: QVQLQESGPGLVKPSETLSLTCTVSGGSINNYYWIWIRQPPGKGLEWIGYIYHSGSTNYNPSLKSRVTISVDTSKNQFSLKVSSVTAADTAVYYCANMVRGVYEDDYWGQGTLVTVSS
VL: DIQMTQSPSSLSASVGDRVTITCRASQSISNYLNWYQQKPGKAPKLLIFAASSLRSGVPSRFSGSGSGTDFTLTISSLHPEDFATYYCQQNYNTPLTFGPGTKVDIKR
For the molecule B22, in assay [1], the Kd was no more than 0.007 nM and the t1/2 was no less than 19.2 h.

B23: mAb10984 (antibody, V domains shown)
VH: EVQLVESGGGLVQPGGSLRLSCAASGLTVNRNYMSWVRQAPGKGLEWVSLIYSGGSTYYADSVKGRFTISRDNSKNTLYLQMNSLRLEDTAVYYCARGELGIPYGMDVWGQGTTVTVSS
VL: QSVLTQPPSVSAAPGQKVTISCSGSSSNIGNNYVSWYQQLPGTAPKLLIYDNNKRPSGIPDRFSGSKSGTSATLGITGLQTGDEADYYCGTWDSSLSAGVFGGGTKLTVLG
As for B23, in assay [1], the Kd is no more than 0.0249 nM and the t1/2 is no less than 19.2 h.
